These results are taken from PMC12586476, “Molecular mechanism and structural models of protein-mediated copper transfer to the Arabidopsis thaliana ethylene receptor ETR1 at the ER membrane” (Scientific Reports, 2025).

T1: ETR1_GAF^1–316 (truncation of the Arabidopsis thaliana ethylene receptor ETR1 containing the transmembrane … (Arabidopsis thaliana, UniProt P49333 1-316, AlexaFluor 488-NHS (amine-reactive dye) label))
T1 construct: Membrane protein kept in Fos-Choline-14; source: E. coli C41(DE3)∆ompF∆acrAB, membranes solubilized in Fos-Choline-14, purified (Ni-NTA IMAC)
T1 sequence (looked up): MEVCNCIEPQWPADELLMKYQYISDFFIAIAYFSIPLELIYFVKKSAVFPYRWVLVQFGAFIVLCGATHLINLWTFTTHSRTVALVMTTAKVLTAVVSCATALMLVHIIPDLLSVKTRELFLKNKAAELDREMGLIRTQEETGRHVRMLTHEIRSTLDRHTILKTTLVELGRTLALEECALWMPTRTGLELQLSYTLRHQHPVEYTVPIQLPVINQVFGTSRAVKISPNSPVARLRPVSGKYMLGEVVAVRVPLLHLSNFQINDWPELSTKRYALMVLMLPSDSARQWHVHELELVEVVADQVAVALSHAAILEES

T2: Arabidopsis copper chaperone CCH (Arabidopsis thaliana, UniProt O82089 1-121, AlexaFluor 488 label)
T2 construct: Copper chaperone CCH, Arabidopsis thaliana
T2 sequence (looked up): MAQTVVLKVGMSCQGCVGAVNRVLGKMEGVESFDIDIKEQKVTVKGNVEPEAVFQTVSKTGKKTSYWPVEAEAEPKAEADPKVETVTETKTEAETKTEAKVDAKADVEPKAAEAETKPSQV

B1: RAN1 degenerate metal binding domain 3 (MBD3) (domain or fragment, Arabidopsis thaliana, UniProt Q9S7J8 205-283, looked up)
chain: QQDKLVLRVDGILNELDAQVLEGILTRLNGVRQFRLDRISGELEVVFDPEVVSSRSLVDGIEEDGFGKFKLRVMSPYER
notes: Copper-transporting P-type ATPase RAN1 (HMA7), Arabidopsis thaliana, MBD3, AA 205-283; Cloned into pETEV16b; also called HMA7 MBD3; source: E. coli BL21 Gold (DE3), purified (Ni-NTA IMAC, SEC); not shown: His tag (deca-histidine), N-terminal, kept
B2: RAN1 metal binding domain 2 (MBD2) (domain or fragment, Arabidopsis thaliana, UniProt Q9S7J8 132-207, looked up)
chain: TLVGQFTIGGMTCAACVNSVEGILRDLPGVKRAVVALSTSLGEVEYDPNVINKDDIVNAIEDAGFEGSLVQSNQQD
notes: Copper-transporting P-type ATPase RAN1 (HMA7), Arabidopsis thaliana, MBD2, AA 132-207; Cloned into pETEV16b (pET-16b derivative with a TEV site); no tag cleavage is described; also called HMA7 MBD2; source: E. coli BL21 Gold (DE3), purified (Ni-NTA IMAC, SEC)
B3: RAN1 metal binding domain 1 (MBD1) (domain or fragment, Arabidopsis thaliana, UniProt Q9S7J8 55-130, looked up)
chain: LRKIQVGVTGMTCAACSNSVEAALMNVNGVFKASVALLQNRADVVFDPNLVKEEDIKEAIEDAGFEAEILAEEQTQ
notes: Copper-transporting P-type ATPase RAN1 (HMA7), Arabidopsis thaliana, MBD1, AA 55-130; Cloned into pETEV16b (pET-16b derivative with a TEV site); no tag cleavage is described; also called HMA7 MBD1; source: E. coli BL21 Gold (DE3), purified (Ni-NTA IMAC, SEC)

The first assay deals with T1, ETR1_GAF^1–316 (truncation of the …). The experiment in a line: MST; AlexaFluor488-labelled ETR1_GAF 50 nM, MBDs titrated 100 µM to 24.4 nM; 300 mM NaCl, 50 mM HEPES pH 7.2 with Fos-Choline-14 and glycerol; room temperature; thermophoresis with T-jump; one-site binding model; apparent KD. The following applies: both partners purified.
For the molecule B1, the Kd is 8300 ± 6600 nM.

Regarding B2, the Kd was determined as 22300 ± 12100 nM.

Regarding B3, the Kd came out at 13300 ± 4400 nM.

A further assay addresses Arabidopsis copper transport protein ATX1 (Arabidopsis thaliana). Nature of the assay: MST; AlexaFluor488-labelled ATX1 or CCH 100 nM, MBDs titrated (MBD1 300 µM to 0.19 nM, MBD2 100 µM to 0.19 nM, MBD3 100 µM to 0.06 nM); 300 mM NaCl, 50 mM HEPES pH 7.2 with Tween20 and glycerol; room temperature; initial fluorescence analysed; one-site binding model; apparent KD.
Settings: not given
Regarding B1, the Kd was determined as 105 nM.

Consider B2, for which the Kd was 239 nM.

Regarding B3, the Kd turned out to be 155 nM.

Another assay addresses T2, Arabidopsis copper chaperone CCH. The assay is described as above. The following applies: both partners purified.
With B1, the Kd was found to be 88.5 ± 78.2 nM.

For B2, the Kd was 2280 ± 990 nM.

On to B3, for which the Kd turned out to be 3160 ± 684 nM.
